{"source": "patent CN114891104A", "about": "(YOURUI SAISI WUHAN BIOTECHNOLOGY CO LTD, dated 2022)", "target": "T1, 重组人proAMH蛋白 (recombinant human proAMH protein) (human, UniProt P03971 25-560)", "T1 construct": "Expressed in Expi293 cells and purified on Ni-IMAC; nothing is said about the recombinant protein itself; also called His-tag重组人proAMH蛋白; 人proAMH标准品蛋白; not shown: His-tag; neither its length nor its terminus is stated", "T1 sequence (looked up)": "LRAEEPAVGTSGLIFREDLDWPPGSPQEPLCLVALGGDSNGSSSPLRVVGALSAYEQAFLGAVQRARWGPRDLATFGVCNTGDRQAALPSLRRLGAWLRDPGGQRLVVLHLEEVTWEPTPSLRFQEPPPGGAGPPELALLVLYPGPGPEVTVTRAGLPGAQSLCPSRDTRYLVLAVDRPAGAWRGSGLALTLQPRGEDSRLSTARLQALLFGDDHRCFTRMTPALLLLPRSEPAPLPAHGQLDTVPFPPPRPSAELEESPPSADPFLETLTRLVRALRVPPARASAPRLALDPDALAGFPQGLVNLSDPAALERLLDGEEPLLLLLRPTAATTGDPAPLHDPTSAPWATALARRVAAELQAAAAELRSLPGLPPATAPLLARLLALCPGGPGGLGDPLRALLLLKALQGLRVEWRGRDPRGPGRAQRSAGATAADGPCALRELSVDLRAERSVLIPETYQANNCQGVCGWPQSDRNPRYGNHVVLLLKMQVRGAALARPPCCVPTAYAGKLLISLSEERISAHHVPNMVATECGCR", "experiment": "SPR, Biacore 3000; antibody immobilised on CM5 chip, proAMH at 100-3 nM as analyte", "data": [{"binder": "单克隆抗体A (抗人proAMH蛋白兔单克隆抗体A) (antibody, V domains shown, Recombinant rabbit monoclonal antibody made in 293F cells; kappa light chain, heavy constant region called IgG1 type; Copies '2' follows from the IgG format; also called monoclonal antibody A) VH: QSVKESEGGLFKPTDTLTLTCTVSAFSISTYGVSWVRQAPGNGLEYIGWIAATGKVFYASWAKSRSTITRNTYENTVTLKMTSLTVADTATYFCAHVIWATQTFDFWGPGTLVTVSS VL: DVVMTQTPASVSDPVGGTVTIKCQASQTITNFLSWFQQKPGQPPKLLIYNTMTLASGVPSRFKGSGSGTEYTLTISGVECADAATYYCQEGDNWDEVDAVFGGGTEVVVKG", "values": [{"measurement": "Kd", "value": 6.02, "unit": "nM"}, {"measurement": "koff", "value": 0.000117, "unit": "s⁻¹"}, {"measurement": "kon", "value": 19500, "unit": "M⁻¹ s⁻¹"}]}]}
